According to the Immune Epitope Database (IEDB):
One block for each sequence: values may come before it.

Columns and labels:
[1] = biological target: HLA-B*27:05; assay: IEDB peptide-MHC binding, purified MHC/competitive/fluorescence; ≥ and ≤ were set here for values at or beyond the usual limits of such assays; conditions: source organism: hepatitis C virus genotype 1a
[2] = biological target: HLA-C*15:02; assay: IEDB peptide-MHC binding, purified MHC/direct/fluorescence; filed as Kd, often an IC50 or EC50 that approximates it; ≥ and ≤ were set here for values at or beyond the usual limits of such assays; conditions: source organism: Bacillus anthracis str. A2012
[3] = biological target: HLA-C*05:01; assay: as above; conditions: source organism: Bacillus anthracis str. A2012
[4] = biological target: HLA-C*07:02; assay: as above; conditions: source organism: Bacillus anthracis str. A2012
[5] = biological target: HLA-B*15:02; assay: IEDB peptide-MHC binding, purified MHC/competitive/fluorescence; filed as Kd, often an IC50 or EC50 that approximates it; ≥ and ≤ were set here for values at or beyond the usual limits of such assays
[6] = biological target: HLA-B*27:20; assay: as above; conditions: source organism: Bacillus anthracis str. A2012
[7] = biological target: HLA-B*45:06; assay: as above; conditions: source organism: Bacillus anthracis str. A2012
[8] = biological target: HLA-B*15:42; assay: as above; conditions: source organism: Bacillus anthracis str. A2012
[9] = biological target: HLA-B*83:01; assay: as above; conditions: source organism: Bacillus anthracis str. A2012
[10] = biological target: HLA-C*14:02; assay: as above; conditions: source organism: Bacillus anthracis str. A2012
[11] = biological target: HLA-A*02:06; assay: as above; conditions: source organism: Encephalitozoon cuniculi GB-M1
[12] = biological target: HLA-A*02:03; assay: as above; conditions: source organism: Encephalitozoon cuniculi GB-M1
[13] = biological target: HLA-A*02:01; assay: as above; conditions: source organism: Encephalitozoon cuniculi GB-M1
[14] = biological target: HLA-A*69:01; assay: as above; conditions: source organism: Encephalitozoon cuniculi GB-M1
[15] = biological target: HLA-A*02:19; assay: as above; conditions: source organism: Encephalitozoon cuniculi GB-M1
[16] = biological target: HLA-A*02:11; assay: as above; conditions: source organism: Encephalitozoon cuniculi GB-M1
[17] = biological target: HLA-A*02:16; assay: as above; conditions: source organism: Encephalitozoon cuniculi GB-M1
[18] = biological target: HLA-A*02:50; assay: as above
[19] = biological target: HLA-A*02:12; assay: as above; conditions: source organism: Encephalitozoon cuniculi GB-M1
[20] = biological target: HLA-B*35:01; assay: IEDB peptide-MHC binding, cellular MHC/competitive/fluorescence; ≥ and ≤ were set here for values at or beyond the usual limits of such assays; conditions: source organism: Mycobacterium tuberculosis H37Rv
[21] = biological target: HLA-B*15:01; assay: IEDB peptide-MHC binding, purified MHC/direct/fluorescence; filed as Kd, often an IC50 or EC50 that approximates it; ≥ and ≤ were set here for values at or beyond the usual limits of such assays; conditions: source organism: Salmonella enterica
[22] = biological target: HLA-A*02:06; assay: as above
[23] = biological target: HLA-B*08:01; assay: as above; conditions: source organism: Salmonella enterica subsp. enterica serovar Typhimurium str. LT2
[24] = biological target: HLA-A*02:01; assay: as above
[25] = biological target: HLA-A*02:19; assay: as above
[26] = biological target: HLA-B*46:01; assay: as above
[27] = biological target: HLA-A*02:11; assay: as above
[28] = biological target: HLA-B*27:05; assay: as above
[29] = biological target: HLA-B*07:02; assay: as above; conditions: source organism: Salmonella enterica
[30] = biological target: HLA-A*02:16; assay: as above
[31] = biological target: HLA-B*44:02; assay: as above; conditions: source organism: Salmonella enterica
[32] = biological target: HLA-B*40:01; assay: as above; conditions: source organism: Salmonella enterica
[33] = biological target: HLA-A*02:12; assay: as above
[34] = biological target: HLA-B*58:01; assay: as above; conditions: source organism: Salmonella enterica
[35] = biological target: HLA-A*03:01; assay: as above
[36] = biological target: HLA-B*73:01; assay: as above; conditions: source organism: Giardia lamblia ATCC 50803
[37] = biological target: HLA-B*48:01; assay: as above; conditions: source organism: Giardia lamblia ATCC 50803
[38] = biological target: HLA-B*51:01; assay: as above; conditions: source organism: Entamoeba histolytica HM-1:IMSS
[39] = biological target: HLA-A*29:02; assay: as above; conditions: source organism: Entamoeba histolytica HM-1:IMSS
[40] = biological target: HLA-A*24:03; assay: as above; conditions: source organism: Entamoeba histolytica HM-1:IMSS
[41] = biological target: HLA-B*27:03; assay: as above; conditions: source organism: Entamoeba histolytica HM-1:IMSS
[42] = biological target: HLA-A*26:01; assay: as above; conditions: source organism: Entamoeba histolytica HM-1:IMSS
[43] = biological target: HLA-A*69:01; assay: as above; conditions: source organism: Entamoeba histolytica HM-1:IMSS
[44] = biological target: HLA-B*15:17; assay: as above; conditions: source organism: Entamoeba histolytica HM-1:IMSS
[45] = biological target: HLA-B*39:01; assay: as above; conditions: source organism: Entamoeba histolytica HM-1:IMSS
[46] = biological target: HLA-B*57:01; assay: as above; conditions: source organism: Entamoeba histolytica HM-1:IMSS
[47] = source organism: Salmonella enterica subsp. enterica serovar Typhimurium str. LT2
[48] = source organism: Salmonella enterica
[49] = source organism: Entamoeba histolytica HM-1:IMSS

Sequence: GRAVICGKY
IC50 [1]: 32 nM

Sequence: WMYYPRSPV
Kd [2]: ≥ 20000 nM | Kd [3]: ≥ 20000 nM | Kd [4]: 667 nM | Kd ([5]; source organism: Bacillus anthracis str. A2012): 391 nM | Kd [6]: 0.2 nM | Kd [7]: ≥ 5000 nM | Kd [8]: ≥ 5000 nM | Kd [9]: ≥ 5000 nM | Kd [10]: 6.8 nM

Kd [11]: ≤ 1 nM | Kd [12]: 1.6 nM | Kd [13]: 2.5 nM | Kd [14]: 423 nM | Kd [15]: 486 nM | Kd [16]: ≤ 1 nM | Kd [17]: ≤ 1 nM | Kd ([18]; source organism: Encephalitozoon cuniculi GB-M1): 0.3 nM | Kd [19]: 122 nM
Sequence: GVYGGLCLA

Sequence: LPAKFLEGF
IC50 [20]: 700 nM

Sequence: WTLETLPRV
Kd [21]: ≥ 20000 nM | Kd [22, 47]: ≤ 1 nM | Kd [23]: ≥ 20000 nM | Kd [24, 48]: 28.7 nM | Kd [25, 47]: 4 nM | Kd [26, 48]: ≥ 20000 nM | Kd [27, 47]: ≤ 1 nM | Kd [28, 48]: ≥ 20000 nM | Kd [29]: ≥ 20000 nM | Kd [30, 47]: ≤ 1 nM | Kd [31]: ≥ 20000 nM | Kd [32]: ≥ 20000 nM | Kd [33, 47]: ≤ 1 nM | Kd [34]: ≥ 20000 nM | Kd [35, 48]: ≥ 20000 nM | Kd ([18]; source organism: Salmonella enterica subsp. enterica serovar Typhi): 9.4 nM

Sequence: YRYKMPVME
Kd [36]: 1620 nM | Kd ([28]; source organism: Giardia lamblia ATCC 50803): 124 nM | Kd [37]: ≥ 20000 nM

Sequence: GMRVLGTNY
Kd ([5]; source organism: Vibrio cholerae 2740-80): 229 nM

Sequence: RQRHYFDSA
Kd [22, 49]: 4 nM | Kd [38]: ≥ 20000 nM | Kd [39]: ≥ 20000 nM | Kd [40]: ≥ 20000 nM | Kd [24, 49]: 7000 nM | Kd [41]: ≥ 20000 nM | Kd [42]: ≥ 20000 nM | Kd [43]: ≥ 20000 nM | Kd [25, 49]: ≥ 20000 nM | Kd [26, 49]: ≥ 20000 nM | Kd [27, 49]: ≥ 20000 nM | Kd [44]: ≥ 20000 nM | Kd [30, 49]: ≥ 20000 nM | Kd [45]: ≥ 20000 nM | Kd [33, 49]: ≥ 20000 nM | Kd [35, 49]: ≥ 20000 nM | Kd [46]: ≥ 20000 nM
